# Test results as given in patent publication US6573076B1, “Gene, group of genes, and novel β-glucosidase” (Ajinomoto Co., Inc., priority 1997, dated 2003).
# B1: β-glucosidase (G3ase): β-glucosidase purified from Acetobacter xylinum subsp. sucrofermentans BPR 2001, amino acid sequence SEQ ID NO:7 (protein, listed as Acetobacter xylinum)
# chain: MRLSRKIFLLSAVACGMALAQAPAFARHAHDGGGDQADARARQVLASMSLEDKMSLLFSVDGGGFNGSVAPPGGLGSAAYLRAPQGSGLPDLQISDAGLGVRNPAHIRRNGEAVSLPSGQSTASTWDMDMARQAGVMIGREAWQSGFNILLGGGADLTRDPRGGRNFEYAGEDPLQTGRMVGSTIAGVQSQHVISTLKHYAMNDLETSRMTMSADIDPVAMRESDLLGFEIALETGHPGAVMCSYNRVNDLYACENPYLLNKTLKQDWHYPGFVMSDWGATHSSARAALAGLDQESAGDHTDARPYFRTLLAADVKAGRVPEARINDMAERVVRALFAAGLVDHPAQRGPLDVVTDTLVAQKDEEEGAVLLRNQGNILPLSPTARIAVIGGHADAGVISGGGSSQVDPIGGEAVKGPGKKEWPGDPVYFPSSPLKAMQAEAPGARITYDPGTSIASAVRAARAADVVVVYATQFTFEGMDAPSMHLDDNADALITAVAAANPRTVVVMETGDPVLMPWNSSVAGVLEAWFPGSGGGPAIARLLFGKVAPSGHLTMTFPQAESQLAHPDIAGVTADNVFEMQFHTDQELVYDEGSDVGYRWFDRNHFKPLYPFGYGLTYTTFSTDGLKVTERHGQVTATFNVHNTGTRAGVDVPQVYVGLPDGGARRLAGWQRISLAPGESRQVSVQLEPRLLAHFDGKHDRWSVPSGTFRVWLASCATDDSQQTTMHLHGRTMAP
# modifications: n at positions 15741 and 15767 may be a, g, t, or c
# Experiments:
# [1] = Specific activity of purified β-glucosidase (G3ase), glucose release from cellotriose; type: biochemical, Acetobacter xylinum subsp. sucrofermentans BPR 2001; details: purified sample; 1 U = 1 μmol glucose from G3 at 30° C. for 2 hr
# Description: Acetobacter xylinum subsp. sucrofermentans BPR 2001 strain was cultured in CSL-Fru medium using a jar fermenter (inner volume: 3 L, culture medium volume: 1.8 L) at 30° C. and pH5 for 68 hours. The resulting culture medium (about […] in total) was subjected to centrifugation to give its supernatant (3,600 ml). The resulting supernatant was subjected to salting-out with 60%-saturated ammonium sulfate, and the resulting precipitate was collected by centrifugation. The collected precipitate was solubilized into distilled water of 352 ml and dialyzed against distilled water (15 L). The resulting precipitate was collected and extracted three times with 20 mM sodium acetate buffer (pH5.5) containing 0.15 M NaCl. G3ase activity was found in the resulting extract. The extract was subjected to CM-Toyopearl 650M column (Tosoh Co. Ltd.; 3.2 cm in diameter, 13.3 cm in length) equilibrated with 20 mM sodium acetate buffer (pH5.5) containing 0.15 M NaCl to absorb the G3ase activity. […]
# After reaction at 30° C. for 2 hr, a reaction solution (300 μl) of a glucose-measuring kit (Glucose CII test Wako: Wako Pure Chemical Industries, Ltd.) was added to the mixture, and reacted for 15 min at a room temperature, followed by the determination of an amount of glucose based on absorbance at 505 nm.
# [2] = type: physicochemical, Acetobacter xylinum subsp. sucrofermentans BPR 2001
# Description: The pH stability of β-glucosidase (G3ase) was studied. […] An optimum pH was about 5.5. The thermal stability of β-glucosidase (G3ase) was also studied.
# [3] = Isoelectric point of β-glucosidase (G3ase) by IEF-PAGE; type: physicochemical, Acetobacter xylinum subsp. sucrofermentans BPR 2001
# Description: The molecular weight of β-glucosidase (G3ase) determined by SDS-PAGE was about 81,200 (FIG. 2). Its isoelectric point (pI) determined by IEF-PAGE was about 6.0 (FIG. 3).
molecule,measurement,setting,value
B1,Specific activity,[1],840 U/mg-portein
same,optimum pH,[2],about 5.5
same,optimum temperature,[2],about 40 °C
same,temperature at which inactivated,[2]; 30-minute treatment at pH 5.5,≥ 50 °C
same,temperature at which stable,[2]; 30-minute treatment at pH 5.5,≤ 30 °C
same,remaining activity (pH stability),[2]; 3 h,≥ 80%
same,isoelectric point (pI),[3],about 6.0
